Experimental data from PMC13189263.

How the values were obtained:
[1] = target: N6-I3 Ab (human); assay: SPR
[2] = target: N6-I2 Ab (human); assay: SPR

BG505 MD39.3 SOSIP trimer
Kd [1]: 3 nM
Kd [2]: 5.7 nM
